Measurements as given in patent US10562947B2, “Compositions and methods for preventing or treating diseases, conditions or processes characterized by aberrant fibroblast proliferation and extracellular matrix deposition” (MOERAE MATRIX, INC., priority 2011, dated 2020).

Assays:
Experiment in all cases: Kinase Profiling Assay
Format in all cases: biochemical
Conditions in all cases: 100 μM peptide
EphA7(h) = EphA7(h) (Homo sapiens, UniProt Q15375)
In short: (§1)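 MK2 inhibitory peptides were screened for specificity across a commercial panel of 266 human kinases, and each kinase activity measurement was run in duplicate.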

Rsk4(h) = Rsk4(h) (Homo sapiens, UniProt Q9UK32)
Sequence of Rsk4(h) (Q9UK32 whole entry): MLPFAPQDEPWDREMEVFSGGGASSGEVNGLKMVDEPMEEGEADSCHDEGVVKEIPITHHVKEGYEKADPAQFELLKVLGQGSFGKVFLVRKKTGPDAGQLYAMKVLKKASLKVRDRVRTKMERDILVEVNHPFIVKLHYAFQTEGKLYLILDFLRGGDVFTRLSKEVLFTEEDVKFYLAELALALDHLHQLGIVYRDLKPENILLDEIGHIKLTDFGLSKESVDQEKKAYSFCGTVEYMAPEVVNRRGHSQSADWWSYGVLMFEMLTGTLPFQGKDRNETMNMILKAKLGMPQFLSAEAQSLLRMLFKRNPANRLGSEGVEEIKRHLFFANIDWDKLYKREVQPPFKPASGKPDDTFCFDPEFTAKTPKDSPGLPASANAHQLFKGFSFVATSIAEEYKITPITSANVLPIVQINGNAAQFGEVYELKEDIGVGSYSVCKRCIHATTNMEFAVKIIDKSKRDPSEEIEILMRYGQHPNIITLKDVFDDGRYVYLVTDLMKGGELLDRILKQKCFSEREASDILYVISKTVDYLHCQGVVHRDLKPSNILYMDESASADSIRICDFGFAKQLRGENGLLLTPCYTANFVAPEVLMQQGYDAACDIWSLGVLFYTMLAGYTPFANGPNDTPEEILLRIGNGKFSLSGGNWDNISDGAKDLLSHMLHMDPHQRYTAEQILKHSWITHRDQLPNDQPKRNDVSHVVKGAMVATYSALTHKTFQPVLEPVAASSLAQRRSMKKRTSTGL
In short: as §1

Aurora-B(h) = Aurora-B(h) (Homo sapiens, UniProt Q96GD4)
In short: as §1

WNK2(h) = WNK2(h) (Homo sapiens, UniProt Q9Y3S1)
Sequence of WNK2(h) (Q9Y3S1 whole entry): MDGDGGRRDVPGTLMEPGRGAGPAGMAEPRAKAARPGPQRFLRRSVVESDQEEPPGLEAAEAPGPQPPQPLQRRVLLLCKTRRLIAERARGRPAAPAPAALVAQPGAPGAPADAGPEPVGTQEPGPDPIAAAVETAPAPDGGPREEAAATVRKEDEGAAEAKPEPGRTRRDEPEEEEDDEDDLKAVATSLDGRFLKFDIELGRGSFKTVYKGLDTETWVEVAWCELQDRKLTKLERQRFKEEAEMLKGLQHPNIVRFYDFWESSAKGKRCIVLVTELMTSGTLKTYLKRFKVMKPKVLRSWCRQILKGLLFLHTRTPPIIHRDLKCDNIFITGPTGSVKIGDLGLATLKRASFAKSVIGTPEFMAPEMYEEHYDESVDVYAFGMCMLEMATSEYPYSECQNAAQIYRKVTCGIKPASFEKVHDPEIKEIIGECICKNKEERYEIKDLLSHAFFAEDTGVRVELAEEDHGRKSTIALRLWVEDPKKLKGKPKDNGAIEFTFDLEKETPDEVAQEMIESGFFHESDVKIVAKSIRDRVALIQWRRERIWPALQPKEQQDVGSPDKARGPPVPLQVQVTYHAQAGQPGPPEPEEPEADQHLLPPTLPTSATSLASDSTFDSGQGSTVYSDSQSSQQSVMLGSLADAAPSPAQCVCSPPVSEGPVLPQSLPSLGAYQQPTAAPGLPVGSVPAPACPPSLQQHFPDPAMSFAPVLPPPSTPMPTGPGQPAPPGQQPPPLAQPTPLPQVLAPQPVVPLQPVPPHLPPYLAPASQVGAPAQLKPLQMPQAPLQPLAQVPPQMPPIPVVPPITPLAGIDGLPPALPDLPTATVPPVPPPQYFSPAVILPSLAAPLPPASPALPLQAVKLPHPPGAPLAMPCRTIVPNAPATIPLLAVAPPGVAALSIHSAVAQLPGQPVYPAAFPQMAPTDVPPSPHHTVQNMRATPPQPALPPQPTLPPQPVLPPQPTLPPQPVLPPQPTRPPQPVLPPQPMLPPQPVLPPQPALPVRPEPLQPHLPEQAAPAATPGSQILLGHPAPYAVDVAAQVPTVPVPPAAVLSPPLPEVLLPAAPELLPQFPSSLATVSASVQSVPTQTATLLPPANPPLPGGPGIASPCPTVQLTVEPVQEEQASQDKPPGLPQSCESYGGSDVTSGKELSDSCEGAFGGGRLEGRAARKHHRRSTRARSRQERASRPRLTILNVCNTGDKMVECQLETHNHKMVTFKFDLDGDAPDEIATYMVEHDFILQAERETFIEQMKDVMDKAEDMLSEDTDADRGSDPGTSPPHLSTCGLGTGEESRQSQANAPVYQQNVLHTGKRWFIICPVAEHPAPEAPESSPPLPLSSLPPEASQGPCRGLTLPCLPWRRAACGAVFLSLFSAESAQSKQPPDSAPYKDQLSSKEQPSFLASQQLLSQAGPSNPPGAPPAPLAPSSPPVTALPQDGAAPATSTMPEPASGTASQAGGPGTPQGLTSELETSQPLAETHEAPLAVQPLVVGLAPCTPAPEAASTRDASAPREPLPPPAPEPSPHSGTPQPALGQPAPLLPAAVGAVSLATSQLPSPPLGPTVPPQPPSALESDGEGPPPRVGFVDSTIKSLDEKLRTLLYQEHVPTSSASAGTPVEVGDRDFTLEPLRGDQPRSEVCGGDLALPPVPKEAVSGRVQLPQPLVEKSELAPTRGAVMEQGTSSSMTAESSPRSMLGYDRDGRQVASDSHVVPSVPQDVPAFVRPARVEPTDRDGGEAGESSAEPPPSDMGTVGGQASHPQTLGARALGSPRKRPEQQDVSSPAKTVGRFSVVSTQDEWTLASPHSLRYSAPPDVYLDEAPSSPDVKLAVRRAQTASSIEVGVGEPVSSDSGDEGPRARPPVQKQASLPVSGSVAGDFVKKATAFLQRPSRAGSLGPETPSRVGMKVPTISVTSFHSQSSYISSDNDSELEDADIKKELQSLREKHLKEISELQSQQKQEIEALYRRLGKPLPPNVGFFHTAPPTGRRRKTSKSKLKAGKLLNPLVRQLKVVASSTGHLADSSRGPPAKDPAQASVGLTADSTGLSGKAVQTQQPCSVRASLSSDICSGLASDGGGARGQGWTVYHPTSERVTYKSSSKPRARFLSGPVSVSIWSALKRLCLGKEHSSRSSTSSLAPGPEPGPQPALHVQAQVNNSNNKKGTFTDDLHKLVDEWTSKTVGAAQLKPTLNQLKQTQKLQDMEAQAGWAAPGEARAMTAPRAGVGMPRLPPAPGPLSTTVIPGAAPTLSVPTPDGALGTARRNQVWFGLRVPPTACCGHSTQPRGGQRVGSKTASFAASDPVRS
In short: as §1

Pim-2(h) = Pim-2(h) (Homo sapiens, UniProt Q9P1W9)
In short: as §1

PDGFRα(V561D)(h) = PDGFRα(V561D)(h) (Homo sapiens, UniProt P16234, V561D)
In short: as §1

ASK1(h) = target: T1, ASK1(h) (Homo sapiens, UniProt Q99683)
T1 sequence (Q99683 1-1374): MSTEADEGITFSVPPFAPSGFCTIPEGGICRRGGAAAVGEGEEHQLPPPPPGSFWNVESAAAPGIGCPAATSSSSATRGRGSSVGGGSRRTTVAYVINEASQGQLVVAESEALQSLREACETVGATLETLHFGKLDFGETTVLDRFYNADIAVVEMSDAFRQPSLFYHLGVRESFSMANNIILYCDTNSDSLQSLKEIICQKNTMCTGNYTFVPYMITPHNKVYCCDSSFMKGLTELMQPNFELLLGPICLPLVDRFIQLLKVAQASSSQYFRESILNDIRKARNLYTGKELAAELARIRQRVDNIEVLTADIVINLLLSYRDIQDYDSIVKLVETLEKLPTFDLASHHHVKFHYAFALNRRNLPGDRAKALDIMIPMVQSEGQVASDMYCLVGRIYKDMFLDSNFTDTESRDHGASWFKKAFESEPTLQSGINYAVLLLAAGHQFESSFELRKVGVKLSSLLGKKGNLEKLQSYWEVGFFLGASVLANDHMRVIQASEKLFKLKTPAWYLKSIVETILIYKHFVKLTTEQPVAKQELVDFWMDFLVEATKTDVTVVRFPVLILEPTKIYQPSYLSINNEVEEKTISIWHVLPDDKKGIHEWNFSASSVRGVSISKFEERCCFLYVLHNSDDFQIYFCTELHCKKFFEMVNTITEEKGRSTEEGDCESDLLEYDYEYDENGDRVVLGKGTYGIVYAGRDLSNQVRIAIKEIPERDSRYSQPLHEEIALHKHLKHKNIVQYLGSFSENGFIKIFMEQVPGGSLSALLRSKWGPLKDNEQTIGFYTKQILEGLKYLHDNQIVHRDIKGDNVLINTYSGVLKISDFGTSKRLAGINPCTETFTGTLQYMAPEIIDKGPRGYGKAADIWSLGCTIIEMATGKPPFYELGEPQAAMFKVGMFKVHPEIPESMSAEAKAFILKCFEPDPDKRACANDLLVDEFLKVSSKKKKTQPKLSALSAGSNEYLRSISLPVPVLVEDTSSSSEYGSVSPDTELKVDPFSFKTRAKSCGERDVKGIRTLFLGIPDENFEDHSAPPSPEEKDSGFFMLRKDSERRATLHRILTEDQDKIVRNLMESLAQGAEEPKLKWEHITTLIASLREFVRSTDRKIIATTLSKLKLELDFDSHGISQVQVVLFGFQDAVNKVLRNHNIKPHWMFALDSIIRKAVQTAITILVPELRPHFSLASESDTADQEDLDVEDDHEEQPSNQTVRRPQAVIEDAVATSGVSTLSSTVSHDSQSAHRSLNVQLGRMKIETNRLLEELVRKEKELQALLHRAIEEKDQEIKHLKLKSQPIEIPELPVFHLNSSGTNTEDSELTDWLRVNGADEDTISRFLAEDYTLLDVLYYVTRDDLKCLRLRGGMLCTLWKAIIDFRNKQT
In short: as §1

Rsk3(h) = Rsk3(h) (Homo sapiens, UniProt Q15349)
Sequence of Rsk3(h) (Q15349 whole entry): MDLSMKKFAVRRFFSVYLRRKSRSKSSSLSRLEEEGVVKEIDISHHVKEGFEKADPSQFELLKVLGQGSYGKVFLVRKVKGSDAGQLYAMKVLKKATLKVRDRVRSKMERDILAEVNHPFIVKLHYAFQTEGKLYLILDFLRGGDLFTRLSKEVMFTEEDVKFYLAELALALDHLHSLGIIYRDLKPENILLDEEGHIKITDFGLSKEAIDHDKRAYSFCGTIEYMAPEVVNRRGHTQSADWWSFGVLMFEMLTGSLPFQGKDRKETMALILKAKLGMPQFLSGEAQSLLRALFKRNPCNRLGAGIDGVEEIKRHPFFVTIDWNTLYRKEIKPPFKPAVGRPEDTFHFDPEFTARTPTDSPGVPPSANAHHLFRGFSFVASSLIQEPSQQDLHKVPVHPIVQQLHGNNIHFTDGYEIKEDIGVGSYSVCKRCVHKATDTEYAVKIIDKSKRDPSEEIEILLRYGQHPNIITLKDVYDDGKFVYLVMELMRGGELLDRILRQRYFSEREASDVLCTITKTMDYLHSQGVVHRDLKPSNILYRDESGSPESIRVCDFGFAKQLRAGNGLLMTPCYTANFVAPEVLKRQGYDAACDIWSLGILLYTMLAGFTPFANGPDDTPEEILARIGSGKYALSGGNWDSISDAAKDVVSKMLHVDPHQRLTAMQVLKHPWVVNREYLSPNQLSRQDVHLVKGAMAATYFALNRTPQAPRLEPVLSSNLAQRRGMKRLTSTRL
In short: as §1

IRAK1(h) = target: T2, IRAK1(h) (Homo sapiens, UniProt P51617)
T2 construct: purchased Millipore
In short: as §1

FGFR4(h) = FGFR4(h) (Homo sapiens, UniProt P22455)
In short: as §1

Ret(V804L)(h) = target: T3, Ret(V804L)(h) (Homo sapiens, UniProt P07949, V804L)
T3 construct: purchased Millipore (IC50 Profiler Express service)
In short: as §1

PKG1β(h) = target: T4, PKG1β(h) (Homo sapiens, UniProt Q13976)
T4 construct: purchased Millipore (IC50 Profiler Express service)
T4 sequence (Q13976 1-686 isoform Q13976-2): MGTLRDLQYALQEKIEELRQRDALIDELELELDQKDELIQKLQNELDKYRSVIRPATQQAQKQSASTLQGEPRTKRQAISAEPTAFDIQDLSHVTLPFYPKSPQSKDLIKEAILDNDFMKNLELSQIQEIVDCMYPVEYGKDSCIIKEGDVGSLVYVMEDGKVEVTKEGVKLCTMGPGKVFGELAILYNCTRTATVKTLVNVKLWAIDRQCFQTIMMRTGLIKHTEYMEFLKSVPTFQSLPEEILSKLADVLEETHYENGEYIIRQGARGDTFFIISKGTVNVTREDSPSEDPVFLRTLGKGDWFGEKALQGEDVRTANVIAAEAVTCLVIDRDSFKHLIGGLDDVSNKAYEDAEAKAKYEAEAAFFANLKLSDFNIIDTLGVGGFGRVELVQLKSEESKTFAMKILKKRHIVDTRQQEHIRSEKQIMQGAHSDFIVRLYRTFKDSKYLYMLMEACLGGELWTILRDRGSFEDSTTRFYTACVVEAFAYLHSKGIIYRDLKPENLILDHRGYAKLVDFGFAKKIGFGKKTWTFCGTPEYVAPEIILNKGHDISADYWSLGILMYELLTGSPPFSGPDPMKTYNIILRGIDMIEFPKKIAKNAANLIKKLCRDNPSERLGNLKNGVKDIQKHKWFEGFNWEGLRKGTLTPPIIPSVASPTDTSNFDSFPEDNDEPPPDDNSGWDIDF
In short: as §1

MINK(h) = MINK(h) (Homo sapiens, UniProt Q8N4C8)
Sequence of MINK(h) (Q8N4C8 whole entry): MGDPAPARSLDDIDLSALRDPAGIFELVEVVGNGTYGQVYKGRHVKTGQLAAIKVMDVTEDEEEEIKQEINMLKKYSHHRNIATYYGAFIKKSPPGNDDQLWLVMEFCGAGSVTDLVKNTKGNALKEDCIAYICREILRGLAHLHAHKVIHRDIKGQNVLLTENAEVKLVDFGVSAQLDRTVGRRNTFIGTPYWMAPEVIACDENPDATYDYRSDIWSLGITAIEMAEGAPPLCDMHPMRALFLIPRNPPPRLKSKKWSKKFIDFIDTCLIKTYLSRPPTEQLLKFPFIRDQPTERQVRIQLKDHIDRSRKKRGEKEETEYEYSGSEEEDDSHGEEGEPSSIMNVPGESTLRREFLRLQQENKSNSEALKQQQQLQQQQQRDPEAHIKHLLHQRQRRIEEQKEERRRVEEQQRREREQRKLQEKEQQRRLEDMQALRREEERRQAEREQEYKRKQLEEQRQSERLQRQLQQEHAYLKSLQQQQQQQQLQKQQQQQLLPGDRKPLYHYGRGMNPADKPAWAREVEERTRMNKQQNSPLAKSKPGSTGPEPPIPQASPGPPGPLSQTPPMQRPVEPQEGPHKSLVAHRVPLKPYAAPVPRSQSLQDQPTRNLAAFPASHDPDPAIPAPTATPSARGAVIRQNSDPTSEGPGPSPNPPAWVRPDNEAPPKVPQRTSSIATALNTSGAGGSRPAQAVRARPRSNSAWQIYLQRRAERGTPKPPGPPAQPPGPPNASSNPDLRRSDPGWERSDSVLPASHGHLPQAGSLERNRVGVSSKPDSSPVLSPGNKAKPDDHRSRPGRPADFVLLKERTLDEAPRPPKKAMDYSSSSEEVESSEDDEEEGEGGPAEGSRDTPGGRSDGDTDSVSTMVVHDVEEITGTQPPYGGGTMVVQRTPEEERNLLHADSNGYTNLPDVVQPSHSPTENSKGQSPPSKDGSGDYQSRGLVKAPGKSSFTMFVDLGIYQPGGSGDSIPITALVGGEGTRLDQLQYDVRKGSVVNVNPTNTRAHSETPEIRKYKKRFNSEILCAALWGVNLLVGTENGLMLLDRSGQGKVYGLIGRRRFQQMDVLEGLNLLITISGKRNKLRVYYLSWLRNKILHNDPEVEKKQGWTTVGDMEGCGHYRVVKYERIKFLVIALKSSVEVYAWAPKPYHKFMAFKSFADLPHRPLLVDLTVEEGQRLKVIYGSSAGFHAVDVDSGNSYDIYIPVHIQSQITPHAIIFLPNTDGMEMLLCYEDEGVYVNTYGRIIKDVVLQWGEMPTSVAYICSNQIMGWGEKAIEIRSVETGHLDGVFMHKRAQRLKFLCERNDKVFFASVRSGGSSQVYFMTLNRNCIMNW
In short: as §1

Sequence | EphA7(h) % activity (EphA7(h)) | Rsk4(h) % activity (Rsk4(h)) | Aurora-B(h) % activity (Aurora-B(h)) | WNK2(h) % activity (WNK2(h)) | Pim-2(h) % activity (Pim-2(h)) | PDGFRα(V561D)(h) % activity (PDGFRα(V561D)(h)) | ASK1(h) % activity (ASK1(h)) | Rsk3(h) % activity (Rsk3(h)) | IRAK1(h) % activity (IRAK1(h)) | FGFR4(h) % activity (FGFR4(h)) | Ret(V804L)(h) % activity (Ret(V804L)(h)) | PKG1β(h) % activity (PKG1β(h)) | MINK(h) % activity (MINK(h))
KAFAKLAARLYRKALARQLGVAA [MMI-0400] | 222% | 91% | 150% | 54% | 92% | 100% | 69% | 71% | 93% | 19% | 73% | 53% | 52%
YARAAARQARAKALNRQLGVA (Mammalian) [MMI-0200] | 220% | 125% | 166% | 94% | 74% |  | 101% |  | 101% | 75% | 100% | 57% | 
FAKLAARLYRKALARQLGVAA [MMI-0300] | 159% | 90% | 128% | 64% | 76% | 82% | 80% | 76% | 95% | 28% | 79% | 50% | 48%
HRRIKAWLKKIKALARQLGVAA (Mammalian) [MMI-0500] | 189% | 29% | 5% | 8% | 46% | 146% | −4% | 23% | 5% | 3% | 20% | 24% | 5%
